Measurements: the supplement of paper PMC9170038

Test system: MS2 coat protein
Assay: apparent KD of MS2 coat protein; higher = weaker reporter binding
Settings: Eterna round: R107
In short: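 Apparent KD is reported per design as the median of normalised binding-curve fits across its clusters. The RNA switches were made by on-chip transcription from Illumina sequencing clusters. SNAP-549-labelled MS2 coat protein was then added in twofold steps (0.7 or 1.5 nM to 3 µM; 0.8–1.5 h to 10–20 min per step) in 100 mM Tris-HCl pH 7.5, 80 mM KCl, 4 mM MgCl2, without or with constant ligand.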

[1] = input ligand: theophylline 20 uM
[2] = input ligand: theophylline 2 mM
[3] = input ligand: tryptophan 2.4 mM

| Sequence | apparent KD of MS2 coat protein (input ligand: arginine 13.2 mM) | apparent KD of MS2 coat protein [1] | apparent KD of MS2 coat protein [2] | apparent KD of MS2 coat protein [3] | apparent KD of MS2 coat protein (input ligand: none) |
| --- | --- | --- | --- | --- | --- |
| UCAUACAUGAGGAUCACCCAUGUUCGUGGGCGAGGACCGGUACGGCCGCCACUCGUACUAACGGUUUCUUAAACUUCCUUUCGAG [theeternabot_sameState_MS2_Trp_A_49] | 28.3 nM | 41.2 nM | 40.4 nM | – | – |
| UGUCAGCGAAAGUUGACAUGCAGUGCCGGUCGAGGACCGGUACGGCCGCCACUCGAUCUCUCGUACAUGAGGAUCACCCAUGUCG [SS Tryp A #19] | 14.4 nM | 16.6 nM | 14.9 nM | – | – |
| UGGAGUAGGACGGCCGCCACUAUACAAUGUGUAUACAUGAGGAUCACCCAUGUAAUCCUCGGAGAUAGGACCGGGUCAAGUUGUG [X-tryptB-ms2@35] | 39.4 nM | 85.4 nM | 59.8 nM | – | – |
| GGAUUCAACUCGGCCGCCACUGGUGAUCCUAAUGUACAUGAGGAUCACCCAUGUACAUGAGAAUAUAGGACCGGGAGAUAAGUUA [Tryptophan B V3 (+3U)] | 23.2 nM | 33.5 nM | 32.2 nM | – | – |
| GAUGAUAUUGCAGAUACCAGACACAUGAGGAUCACCCAUGUCGCUGGGUUACUGGAUCGUGUCCCUUGGCAGCUGCGAUAUCAUC [Austria] | 69.7 nM | 379 nM | – | 294 nM | – |
| UCGGGAACAUGAGGAUCACCCAUGUCAGAAGGAGCGCUGAGAGAAGCAGGUAGGUCGCUGACGUAGGAGCUCUCUUCCUAUACGC [Exclusion - Arginine A] | 23.3 nM | 40.1 nM | 35.4 nM | 25.4 nM | 30.6 nM |
| GCAUGCGAUACCGAUACCAGCUACUCCAUGGCGCUCCACAUGAGGAUCACCCAUGUAAAUAGCCCUUGGCAGCGGUAUUGAGAUG [Anrabegema] | 16.4 nM | 53.9 nM | – | 21 nM | – |
| UCAUUGAGAGUCAUCCAGCGUUAAUGGGAUACCAGAGUUCUUUUACUCCCUUGGCAGCCCGGAACAUGAGGAUCACCCAUGUCUG [theeternabot_exclusion_MS2_Theo_A_39] | 16.7 nM | 44.7 nM | – | 31.8 nM | – |
| AAACGUUGCUGCGAUACCAGACAUGAGGAUCACCCAUGUACCAAGGUAAAGAAAUAACGUGUCCCUUGGCAGCGCAGCAACGAAA [MAT - Exclusion Theophlline B - Mod of Eli - D12] | 8.7 nM | 16.1 nM | 143 nM | 10.6 nM | 10.2 nM |
| UGUAUGUGAUCUGAUACCAGAGUUGAUAACCUGAGGAUCACCCUGGUAAGGCGAAAGCCACUCCCUUGGCAGCAGAUCGCAUACU | 131 nM | 67.4 nM | 18.3 nM | 101 nM | 86.1 nM |
| UCAUAAGUACCGGUCCUCAGAUCCUCAUGACGAGGACCGGUACGGCCGCCACUCGAAACAUGAGGAUCACCCAUGUAAUAACAUU [Brourdmod23] | 19.5 nM | 28.4 nM | 26.1 nM | – | – |
| GGACUAACCUGAAGGAGCGACGCGCAGAAACUGCAAAUUCCUCCACACGAGGAUCACCCGUGUCAGGUAGGUCGCAGGUUAGUCG [ArgBX 28] | 13.6 nM | 18.9 nM | 18.2 nM | 16.9 nM | 14.6 nM |
| CUCCCGUGGUCGGCCGCCACUGGAGGCUUUGCGCGACAUGAGGAUCACCCAUGUGUGCCCGGCGUCAGGACCGGGAUCGCGUGAG [#1 Same State - Tryptophan B Attempt #13 (HarryS)] | 11.7 nM | 16 nM | 17.7 nM | 11.5 nM | 14.6 nM |
| CUACAUGGGCUCGAUACCAGUCAGCUCUCGCGUCUCUCAGACAUGAGGAUCACCCAUGUUGACCCUUGGCAGCGACGAUGUAGGC [theeternabot_exclusion_MS2_Theo_B_46] | 51.1 nM | 123 nM | – | 83.9 nM | – |
| AUGUCGUUGAAUAUAGCGGCUUGGAGUGAUACCAGUAUGAUCCAAUACCCUUGGCAGCAUUACAUGAGGAUCACCCAUGUUCCAG [SSTheo A #24] | 17.2 nM | 37.2 nM | 53.4 nM | 34 nM | 22.6 nM |
